Legend:
[1] = system: c-Abl (mouse); assay: phosphorylation enrichment, bacterial display (enrichment ratio); higher = better substrate or ligand; peptides without Tyr show the background
[2] = target: MERTK (UniProt Q12866); assay: as above
[3] = target: FGFR3 (UniProt P22607); assay: as above
[4] = system: c-Src; assay: as above
[5] = target: Fyn (UniProt P06241); assay: as above
[6] = target: Hck (UniProt P08631); assay: as above
[7] = target: Jak2 (UniProt O60674); assay: as above
[8] = system: Fer (mouse); assay: as above
[9] = target: Fes (UniProt P07332); assay: as above
Fes, sequence (P07332 whole entry, looked up): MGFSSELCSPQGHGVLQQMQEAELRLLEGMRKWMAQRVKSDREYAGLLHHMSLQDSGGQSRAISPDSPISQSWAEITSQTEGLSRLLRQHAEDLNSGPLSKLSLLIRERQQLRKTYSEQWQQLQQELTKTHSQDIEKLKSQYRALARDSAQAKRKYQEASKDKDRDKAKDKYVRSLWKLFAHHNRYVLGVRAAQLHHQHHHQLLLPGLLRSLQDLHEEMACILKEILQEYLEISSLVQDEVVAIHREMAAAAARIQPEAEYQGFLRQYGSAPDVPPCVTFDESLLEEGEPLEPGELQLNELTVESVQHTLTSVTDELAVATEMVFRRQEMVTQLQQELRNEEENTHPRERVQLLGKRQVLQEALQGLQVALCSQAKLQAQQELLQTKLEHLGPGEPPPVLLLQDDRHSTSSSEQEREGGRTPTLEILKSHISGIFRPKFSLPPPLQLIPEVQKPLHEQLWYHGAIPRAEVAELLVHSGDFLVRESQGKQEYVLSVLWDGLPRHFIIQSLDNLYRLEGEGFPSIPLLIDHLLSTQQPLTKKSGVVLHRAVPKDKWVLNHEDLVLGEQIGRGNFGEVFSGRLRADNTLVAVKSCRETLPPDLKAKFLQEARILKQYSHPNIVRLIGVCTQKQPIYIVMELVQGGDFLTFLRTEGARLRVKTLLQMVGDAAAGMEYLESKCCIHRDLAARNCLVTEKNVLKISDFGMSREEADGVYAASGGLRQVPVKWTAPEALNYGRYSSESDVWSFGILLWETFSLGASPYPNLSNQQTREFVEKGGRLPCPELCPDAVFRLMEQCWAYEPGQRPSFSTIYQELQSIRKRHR

[10] = target: FGFR1 (UniProt P11362); assay: as above
FGFR1, sequence (P11362 whole entry, looked up): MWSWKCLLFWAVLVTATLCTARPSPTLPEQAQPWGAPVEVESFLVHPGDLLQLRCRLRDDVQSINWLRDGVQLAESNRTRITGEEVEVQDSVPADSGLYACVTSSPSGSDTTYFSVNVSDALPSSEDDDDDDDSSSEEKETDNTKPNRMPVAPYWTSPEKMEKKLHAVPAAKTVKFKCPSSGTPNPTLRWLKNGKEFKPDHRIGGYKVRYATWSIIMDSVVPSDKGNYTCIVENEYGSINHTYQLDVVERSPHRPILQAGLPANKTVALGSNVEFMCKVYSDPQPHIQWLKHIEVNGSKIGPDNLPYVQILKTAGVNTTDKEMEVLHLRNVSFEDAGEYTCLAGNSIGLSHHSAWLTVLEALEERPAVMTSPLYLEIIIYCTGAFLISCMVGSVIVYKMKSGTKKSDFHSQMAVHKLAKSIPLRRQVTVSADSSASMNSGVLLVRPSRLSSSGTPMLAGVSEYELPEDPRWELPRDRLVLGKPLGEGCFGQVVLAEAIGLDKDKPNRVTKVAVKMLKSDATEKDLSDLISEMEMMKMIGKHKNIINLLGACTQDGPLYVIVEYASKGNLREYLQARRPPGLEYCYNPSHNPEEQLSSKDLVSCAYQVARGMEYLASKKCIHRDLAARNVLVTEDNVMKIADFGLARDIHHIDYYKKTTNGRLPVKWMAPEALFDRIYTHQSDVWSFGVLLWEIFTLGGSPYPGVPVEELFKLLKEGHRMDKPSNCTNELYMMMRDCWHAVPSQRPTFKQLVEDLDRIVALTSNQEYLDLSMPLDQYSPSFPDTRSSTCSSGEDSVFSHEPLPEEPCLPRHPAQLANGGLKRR

[11] = system: AncSZ; assay: as above
[12] = target: EPHB2 (UniProt P29323); assay: as above
EPHB2, sequence (P29323 whole entry, looked up): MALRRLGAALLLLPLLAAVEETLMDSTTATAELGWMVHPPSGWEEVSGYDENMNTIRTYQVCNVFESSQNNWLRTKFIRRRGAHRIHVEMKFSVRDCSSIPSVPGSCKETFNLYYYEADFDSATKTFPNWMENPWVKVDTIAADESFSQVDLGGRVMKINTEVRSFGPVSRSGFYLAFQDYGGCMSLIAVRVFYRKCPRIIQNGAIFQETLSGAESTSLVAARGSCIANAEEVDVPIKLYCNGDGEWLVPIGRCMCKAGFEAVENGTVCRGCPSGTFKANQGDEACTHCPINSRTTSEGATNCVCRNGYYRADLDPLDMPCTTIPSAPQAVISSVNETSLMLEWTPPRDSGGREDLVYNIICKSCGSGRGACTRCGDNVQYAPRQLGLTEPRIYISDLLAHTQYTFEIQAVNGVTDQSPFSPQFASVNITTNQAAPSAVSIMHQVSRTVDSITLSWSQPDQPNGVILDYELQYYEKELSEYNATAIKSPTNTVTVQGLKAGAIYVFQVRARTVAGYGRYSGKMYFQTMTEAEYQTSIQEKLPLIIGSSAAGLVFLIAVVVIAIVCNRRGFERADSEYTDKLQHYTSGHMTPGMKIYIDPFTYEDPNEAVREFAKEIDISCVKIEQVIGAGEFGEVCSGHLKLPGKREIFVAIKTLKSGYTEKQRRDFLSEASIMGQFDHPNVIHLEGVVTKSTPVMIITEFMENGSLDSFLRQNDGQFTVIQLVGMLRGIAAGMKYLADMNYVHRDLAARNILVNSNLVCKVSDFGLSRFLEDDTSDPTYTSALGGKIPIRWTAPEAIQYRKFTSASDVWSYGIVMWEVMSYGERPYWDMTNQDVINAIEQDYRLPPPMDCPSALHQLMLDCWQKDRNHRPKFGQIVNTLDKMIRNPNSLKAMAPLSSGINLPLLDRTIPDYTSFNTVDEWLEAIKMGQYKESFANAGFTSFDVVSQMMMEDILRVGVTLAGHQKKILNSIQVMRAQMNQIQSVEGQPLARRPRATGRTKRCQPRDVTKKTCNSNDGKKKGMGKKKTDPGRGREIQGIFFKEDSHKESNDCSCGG

[13] = target: EPHB1 (UniProt P54762); assay: as above
[14] = target: Grb2 SH2 (UniProt P62993); assay: SH2 binding enrichment of the phosphorylated peptide, bacterial display (enrichment ratio); higher = better substrate or ligand; peptides without Tyr show the background
[15] = target: c-Src SH2; assay: as above
[16] = target: SHP2-C SH2; assay: as above
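Throughout, for SH2 binding enrichment of the phosphorylated peptide, bacterial display: peptide library displayed on the E. coli surface as eCPX fusions, selected cells deep-sequenced, score is each peptide's frequency after selection divided by its frequency in the input.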
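Throughout, for phosphorylation enrichment, bacterial display: 11-residue human phosphosite peptides and single-mutation variants displayed on the E. coli surface, counted by deep sequencing, each peptide's frequency after selection divided by its frequency in the unselected input library; frequency after pTyr selection over input frequency; kinase dosed for 20-30% of maximal phosphorylation in three min.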

Fyn, sequence (P06241 whole entry, looked up): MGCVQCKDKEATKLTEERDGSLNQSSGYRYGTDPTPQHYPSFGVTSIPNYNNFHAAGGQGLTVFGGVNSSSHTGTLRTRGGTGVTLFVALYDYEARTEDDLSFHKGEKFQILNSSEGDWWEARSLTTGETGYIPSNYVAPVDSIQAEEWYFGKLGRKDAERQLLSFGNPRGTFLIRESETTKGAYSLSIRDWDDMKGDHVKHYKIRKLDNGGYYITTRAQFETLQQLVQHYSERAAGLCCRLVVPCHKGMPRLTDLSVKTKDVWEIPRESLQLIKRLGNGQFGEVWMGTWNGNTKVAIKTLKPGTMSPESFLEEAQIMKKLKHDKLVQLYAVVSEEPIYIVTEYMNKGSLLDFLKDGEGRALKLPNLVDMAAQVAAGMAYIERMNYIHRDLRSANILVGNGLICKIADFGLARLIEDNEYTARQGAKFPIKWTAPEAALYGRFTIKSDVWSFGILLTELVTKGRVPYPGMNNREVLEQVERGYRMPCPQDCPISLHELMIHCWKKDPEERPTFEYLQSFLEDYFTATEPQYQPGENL
MERTK, sequence (Q12866 whole entry, looked up): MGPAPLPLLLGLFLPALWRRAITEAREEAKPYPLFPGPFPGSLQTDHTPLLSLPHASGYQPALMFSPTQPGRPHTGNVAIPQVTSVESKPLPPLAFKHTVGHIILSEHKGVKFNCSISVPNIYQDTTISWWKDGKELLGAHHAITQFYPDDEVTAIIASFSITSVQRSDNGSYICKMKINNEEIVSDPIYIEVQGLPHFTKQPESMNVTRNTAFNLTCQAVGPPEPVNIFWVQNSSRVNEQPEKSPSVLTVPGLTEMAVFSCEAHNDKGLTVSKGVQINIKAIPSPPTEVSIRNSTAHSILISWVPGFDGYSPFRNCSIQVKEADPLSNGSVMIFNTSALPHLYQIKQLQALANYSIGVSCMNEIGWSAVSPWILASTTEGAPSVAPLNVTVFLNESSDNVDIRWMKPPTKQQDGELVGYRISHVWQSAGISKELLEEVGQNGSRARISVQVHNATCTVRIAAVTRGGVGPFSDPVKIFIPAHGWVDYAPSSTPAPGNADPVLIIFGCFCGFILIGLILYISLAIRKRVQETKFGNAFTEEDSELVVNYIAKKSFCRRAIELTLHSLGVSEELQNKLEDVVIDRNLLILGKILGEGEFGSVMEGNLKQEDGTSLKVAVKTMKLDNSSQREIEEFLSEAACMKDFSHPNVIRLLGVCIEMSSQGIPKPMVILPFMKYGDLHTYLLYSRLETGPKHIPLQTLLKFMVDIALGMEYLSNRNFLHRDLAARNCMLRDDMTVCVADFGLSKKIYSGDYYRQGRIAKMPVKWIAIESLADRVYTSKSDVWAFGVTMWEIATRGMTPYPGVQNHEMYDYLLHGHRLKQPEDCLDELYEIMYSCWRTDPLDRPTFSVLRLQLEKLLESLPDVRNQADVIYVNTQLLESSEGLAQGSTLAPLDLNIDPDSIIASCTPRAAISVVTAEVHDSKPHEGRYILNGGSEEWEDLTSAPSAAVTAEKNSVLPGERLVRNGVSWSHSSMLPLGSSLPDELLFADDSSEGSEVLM
Hck, sequence (P08631 whole entry, looked up): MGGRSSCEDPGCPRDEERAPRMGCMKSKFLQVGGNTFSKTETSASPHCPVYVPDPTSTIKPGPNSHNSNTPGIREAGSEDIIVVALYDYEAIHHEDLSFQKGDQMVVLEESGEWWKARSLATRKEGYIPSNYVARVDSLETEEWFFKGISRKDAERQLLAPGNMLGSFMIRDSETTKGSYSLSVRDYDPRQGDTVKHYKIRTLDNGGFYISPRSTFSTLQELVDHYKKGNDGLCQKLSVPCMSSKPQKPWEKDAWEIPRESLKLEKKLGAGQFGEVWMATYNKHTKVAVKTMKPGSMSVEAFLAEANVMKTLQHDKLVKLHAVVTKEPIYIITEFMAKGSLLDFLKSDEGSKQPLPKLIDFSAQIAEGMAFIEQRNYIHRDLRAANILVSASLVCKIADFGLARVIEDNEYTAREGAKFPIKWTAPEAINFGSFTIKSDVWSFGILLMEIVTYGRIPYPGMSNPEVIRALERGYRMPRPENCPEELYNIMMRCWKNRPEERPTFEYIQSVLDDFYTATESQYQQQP

Row | SH2 binding enrichment [14] | SH2 binding enrichment [15] | SH2 binding enrichment [16] | Sequence | phosphorylation enrichment [1] | phosphorylation enrichment [2] | phosphorylation enrichment [3] | phosphorylation enrichment [4] | phosphorylation enrichment [5] | phosphorylation enrichment [6] | phosphorylation enrichment [7] | phosphorylation enrichment [8] | phosphorylation enrichment [9] | phosphorylation enrichment [10] | phosphorylation enrichment [11] | phosphorylation enrichment [12] | phosphorylation enrichment [13]
1 | 0.847 | 1.42 | 0.791 | YCRITYDIFPF [INTS13_Y67_M66T] | 1.18 | 2.83 | 1.38 | 2.57 | 1.57 | 2.72 | 1.45 | 0.785 | 1.59 | 1.28 | 1.8 | 3.79 | 3.8
2 | 0.774 | 0.77 | 0.697 | IAAEFYDNLPH [DEGS1_Y284_YF] | 0.535 | 0.687 | 0.682 | 0.723 | 0.72 | 3.88 | 0.559 | 1.12 | 0.79 | 0.66 | 0.894 | 0.68 | 0.531
3 | 0.706 | 1.65 | 0.565 | TRSYDYTEGGD [FGF7_Y58_M59T] | 0.642 | 0.463 | 0.59 | 0.375 | 0.56 | 0.446 | 0.876 | 0.414 | 0.976 | 0.61 | 0.898 | 0.465 | 0.439
4 | 0.744 | 0.452 | 0.561 | LEQDEYALHSH [HADHB_Y244_R247H] | 1.1 | 0.578 | 0.805 | 0.665 | 0.887 | 0.598 | 1.2 | 0.642 | 1.24 | 0.847 | 1.45 | 0.669 | 0.882
5 | 0.7 | 0.414 | 0.549 | CSEEMYRLMLQ [RET_Y981] | 0.947 | 0.573 | 0.853 | 0.643 | 0.606 | 0.666 | 1.5 | 0.619 | 1.41 | 0.921 | 1.4 | 0.664 | 0.695
6 | 1.59 | 0.837 | 1.52 | VMIFAYLLHRG [PTEN_Y138_C136Y_YF] | 0.781 | 0.325 | 0.422 | 0.415 | 0.352 | 0.406 | 0.739 | 0.378 | 0.828 | 0.383 | 0.807 | 0.392 | 0.447
7 | 1.37 | 1.31 | 1.26 | LLILEYAKYGS [RET_Y806_V804L] | 1.02 | 0.392 | 0.869 | 0.764 | 0.587 | 0.486 | 1.5 | 0.58 | 1.27 | 0.547 | 1.32 | 0.649 | 0.773
8 | 0.777 | 0.542 | 0.446 | SMEGLYSSTQD [CLIC5_Y111] | 1.03 | 2.43 | 0.905 | 3.13 | 3.51 | 4.12 | 1.36 | 3.64 | 1.71 | 0.698 | 1.57 | 2.27 | 1.94
9 | 2.24 | 0.444 | 0.706 | KVGNEYVNKGQ [MYH7_Y410_T412N] | 0.422 | 0.373 | 0.391 | 0.428 | 0.412 | 0.327 | 0.424 | 0.404 | 0.541 | 0.492 | 0.581 | 0.553 | 0.337
10 | 0.852 | 0.403 | 0.513 | DKEKWYPLGTS [PIK3C2G_Y1438_N1442T] | 0.591 | 0.458 | 0.642 | 0.486 | 0.505 | 0.44 | 0.765 | 0.55 | 0.931 | 0.409 | 0.821 | 0.496 | 0.544
11 | 0.752 | 0.68 | 0.592 | PVKSEYPSIKL [NPC2_Y119] | 0.654 | 0.465 | 0.623 | 0.364 | 0.509 | 0.515 | 0.557 | 0.433 | 0.822 | 0.579 | 0.456 | 0.562 | 0.358
12 | 0.696 | 0.356 | 0.528 | GRRNTYFASIA [ACADM_Y352_YF] | 0.588 | 0.466 | 0.507 | 0.615 | 0.551 | 0.423 | 0.5 | 0.481 | 0.556 | 0.439 | 0.722 | 0.423 | 0.346
13 | 0.825 | 0.609 | 0.698 | AGQEDYDRLRP [CDC42_Y64] | 0.689 | 0.471 | 0.69 | 0.452 | 0.546 | 0.785 | 0.839 | 0.508 | 1.07 | 0.576 | 1.13 | 0.654 | 0.598
14 | 1.2 | 0.608 | 0.732 | PLYSKYWPNHI [GREB1L_Y1560_R1558S] | 22.6 | 20.1 | 3.06 | 11.8 | 19.9 | 17.4 | 6.37 | 12.3 | 1.27 | 5.11 | 2.47 | 29.7 | 19.1
15 | 0.795 | 0.548 | 0.775 | QTLTDYDIRFY [CSNK2A1_Y131] | 0.913 | 0.484 | 0.84 | 0.603 | 0.552 | 0.526 | 1.18 | 0.586 | 1.27 | 0.62 | 1.27 | 0.72 | 0.825
16 | 0.748 | 0.983 | 0.884 | TLLERYGMIEI [ACSF3_Y355_T358I] | 0.802 | 0.489 | 0.644 | 0.472 | 0.525 | 0.465 | 1.02 | 0.632 | 1.06 | 0.515 | 0.798 | 0.535 | 0.606

Source: the supplement of paper PMC10065799, “High-throughput profiling of sequence recognition by tyrosine kinases and SH2 domains using bacterial peptide display” (eLife, 2023)
